Results as given in article PMC9482650, “Quantitative fragmentomics allow affinity mapping of interactomes” (Nature Communications, 2022).

Assays:
Experiment in all cases: holdup assay
Design in all cases: key: below the threshold = too weak to quantify, mostly under pKd 3.1 to 4
Conditions in all cases: plain residues with an end cap or a label only (N-terminal biotin on a linker: ado-ado)
SNTG2, Q9NY99 = target: T1, SNTG2, Q9NY99
T1 sequence (Q9NY99 68-166, limits assumed, looked up): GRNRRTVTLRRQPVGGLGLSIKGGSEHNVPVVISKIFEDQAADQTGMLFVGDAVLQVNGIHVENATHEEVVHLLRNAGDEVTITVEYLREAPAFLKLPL

GIPC2, Q8TF65 = target: GIPC2, Q8TF65
Inadl_9, Q8NI35 = target: Inadl_9, Q8NI35
LNX2_2, Q8N448 = target: T2, LNX2_2, Q8N448
T2 sequence (Q8N448 334-432, limits assumed, looked up): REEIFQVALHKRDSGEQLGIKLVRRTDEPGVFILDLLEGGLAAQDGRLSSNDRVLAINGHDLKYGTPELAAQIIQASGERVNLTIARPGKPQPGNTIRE

SHANK1, Q9Y566 = target: T3, SHANK1, Q9Y566
T3 sequence (Q9Y566 658-767, limits assumed, looked up): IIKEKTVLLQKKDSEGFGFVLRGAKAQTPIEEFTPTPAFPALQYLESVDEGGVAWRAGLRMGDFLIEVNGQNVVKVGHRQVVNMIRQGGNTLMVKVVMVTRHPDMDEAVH

LNX1_1, Q8TBB1 = target: LNX1_1, Q8TBB1
MAGI1_1, Q96QZ7 = target: MAGI1_1, Q96QZ7
PTPN13_1, Q12923 = target: T4, PTPN13_1, Q12923
T4 sequence (Q12923 1088-1188, limits assumed, looked up): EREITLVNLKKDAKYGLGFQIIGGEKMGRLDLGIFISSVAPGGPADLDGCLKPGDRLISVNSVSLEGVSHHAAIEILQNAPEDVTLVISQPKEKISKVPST

SIPA1L2, Q9P2F8 = target: T5, SIPA1L2, Q9P2F8
T5 sequence (Q9P2F8 945-1036, limits assumed, looked up): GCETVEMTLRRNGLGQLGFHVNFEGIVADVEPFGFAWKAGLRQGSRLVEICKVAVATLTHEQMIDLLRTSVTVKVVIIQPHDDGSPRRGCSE

GRIP1_4, Q9Y3R0 = target: T6, GRIP1_4, Q9Y3R0
T6 sequence (Q9Y3R0 467-571, limits assumed, looked up): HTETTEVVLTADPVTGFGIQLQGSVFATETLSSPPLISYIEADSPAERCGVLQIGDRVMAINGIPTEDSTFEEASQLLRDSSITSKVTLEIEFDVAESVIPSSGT

PDZD7_3, Q9H5P4 = target: T7, PDZD7_3, Q9H5P4
T7 sequence (Q9H5P4 857-944, limits assumed, looked up): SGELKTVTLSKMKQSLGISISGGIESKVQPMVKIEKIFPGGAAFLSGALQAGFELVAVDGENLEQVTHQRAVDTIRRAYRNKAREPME

IL16_1, Q14005 = target: IL16_1, Q14005
DFNB31_1, Q9P202 = target: T8, DFNB31_1, Q9P202
T8 sequence (Q9P202 135-233, limits assumed, looked up): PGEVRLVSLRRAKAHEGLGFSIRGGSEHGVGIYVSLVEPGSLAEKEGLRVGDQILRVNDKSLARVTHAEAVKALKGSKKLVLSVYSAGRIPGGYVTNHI

GRID2IP_2, A4D2P6 = target: GRID2IP_2, A4D2P6
GRASP, Q7Z6J2 = target: GRASP, Q7Z6J2
DFNB31_2, Q9P202 = target: T9, DFNB31_2, Q9P202
T9 sequence (Q9P202 274-371, limits assumed, looked up): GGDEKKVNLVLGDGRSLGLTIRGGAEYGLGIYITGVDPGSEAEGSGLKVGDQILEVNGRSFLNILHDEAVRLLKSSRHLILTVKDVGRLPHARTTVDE

MPP2, Q14168 = target: T10, MPP2, Q14168
T10 sequence (Q14168 180-250, limits assumed, looked up): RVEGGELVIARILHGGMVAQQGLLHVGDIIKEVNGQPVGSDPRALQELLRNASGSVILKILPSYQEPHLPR

DLG4_1, P78352 = target: DLG4_1, P78352
NHERF4_1, Q86UT5-2 = target: NHERF4_1, Q86UT5-2
CARD11, Q9BXL7 = target: T11, CARD11, Q9BXL7
T11 sequence (Q9BXL7 662-765, limits assumed, looked up): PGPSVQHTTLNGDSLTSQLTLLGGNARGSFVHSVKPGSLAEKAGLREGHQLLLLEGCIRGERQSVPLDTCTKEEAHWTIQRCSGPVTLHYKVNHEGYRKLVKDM

MAGI2_6, Q86UL8 = target: MAGI2_6, Q86UL8
LDB3, O75112 = target: LDB3, O75112
NHERF2_2, Q15599 = target: NHERF2_2, Q15599
SCRIB_3, Q14160 = target: SCRIB_3, Q14160
PARD3B_1, Q8TEW8 = target: T12, PARD3B_1, Q8TEW8
T12 sequence (Q8TEW8 196-299, limits assumed, looked up): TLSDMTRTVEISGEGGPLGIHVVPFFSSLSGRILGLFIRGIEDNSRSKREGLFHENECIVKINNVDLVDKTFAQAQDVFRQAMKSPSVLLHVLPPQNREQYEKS

Chain of LDB3, O75112 (O75112 1-94): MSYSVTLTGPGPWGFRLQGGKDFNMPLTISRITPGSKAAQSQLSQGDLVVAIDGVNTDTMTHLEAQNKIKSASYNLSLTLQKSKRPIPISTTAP
Chain of GIPC2, Q8TF65 (Q8TF65 112-203): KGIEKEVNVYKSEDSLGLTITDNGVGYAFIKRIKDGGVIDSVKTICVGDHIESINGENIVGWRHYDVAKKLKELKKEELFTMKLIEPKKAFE
Chain of MAGI2_6, Q86UL8 (Q86UL8 1141-1229): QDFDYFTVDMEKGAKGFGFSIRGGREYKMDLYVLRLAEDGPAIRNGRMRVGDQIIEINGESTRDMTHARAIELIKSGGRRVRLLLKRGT
Chain of SCRIB_3, Q14160 (Q14160 999-1103): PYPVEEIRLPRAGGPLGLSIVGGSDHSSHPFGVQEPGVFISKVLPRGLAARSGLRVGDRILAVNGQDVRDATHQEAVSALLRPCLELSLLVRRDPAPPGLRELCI
Chain of IL16_1, Q14005 (Q14005 210-306): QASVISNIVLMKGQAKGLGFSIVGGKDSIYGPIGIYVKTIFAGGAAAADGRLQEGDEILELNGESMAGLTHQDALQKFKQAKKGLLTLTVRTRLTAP
Chain of GRASP, Q7Z6J2 (Q7Z6J2 96-193): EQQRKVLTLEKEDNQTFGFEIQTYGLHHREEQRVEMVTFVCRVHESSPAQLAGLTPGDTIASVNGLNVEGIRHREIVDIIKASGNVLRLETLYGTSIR
Chain of DLG4_1, P78352 (P78352 62-152): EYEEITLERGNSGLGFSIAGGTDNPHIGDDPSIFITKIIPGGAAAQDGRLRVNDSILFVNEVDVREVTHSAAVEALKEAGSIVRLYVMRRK
Chain of LNX1_1, Q8TBB1 (Q8TBB1 261-371): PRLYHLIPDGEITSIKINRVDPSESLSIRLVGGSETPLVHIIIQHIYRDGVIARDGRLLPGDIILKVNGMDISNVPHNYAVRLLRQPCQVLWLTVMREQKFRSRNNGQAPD
Chain of Inadl_9, Q8NI35 (Q8NI35 1530-1615): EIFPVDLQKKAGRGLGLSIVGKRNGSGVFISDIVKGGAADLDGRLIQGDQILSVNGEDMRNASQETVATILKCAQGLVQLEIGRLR
Chain of NHERF2_2, Q15599 (Q15599 142-238): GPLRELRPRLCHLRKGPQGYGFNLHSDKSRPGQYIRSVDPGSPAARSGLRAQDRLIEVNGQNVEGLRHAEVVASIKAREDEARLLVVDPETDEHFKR
Chain of MAGI1_1, Q96QZ7 (Q96QZ7 1-106): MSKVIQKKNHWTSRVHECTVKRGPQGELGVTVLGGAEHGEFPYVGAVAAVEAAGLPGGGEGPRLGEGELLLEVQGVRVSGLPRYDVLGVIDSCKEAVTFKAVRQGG
Chain of GRID2IP_2, A4D2P6 (A4D2P6 272-370): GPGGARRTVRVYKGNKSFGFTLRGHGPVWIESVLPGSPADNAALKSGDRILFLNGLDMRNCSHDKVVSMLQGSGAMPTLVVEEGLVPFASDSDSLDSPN
Chain of NHERF4_1, Q86UT5-2 (Q86UT5 other isoform, or with tags, fused parts or gaps): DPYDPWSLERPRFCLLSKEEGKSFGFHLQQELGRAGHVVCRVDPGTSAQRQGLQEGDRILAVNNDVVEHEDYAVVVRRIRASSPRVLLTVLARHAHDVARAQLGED

| Binder | pKd (SNTG2, Q9NY99) | pKd (GIPC2, Q8TF65) | pKd (Inadl_9, Q8NI35) | pKd (LNX2_2, Q8N448) | pKd (SHANK1, Q9Y566) | pKd (LNX1_1, Q8TBB1) | pKd (MAGI1_1, Q96QZ7) | pKd (PTPN13_1, Q12923) | pKd (SIPA1L2, Q9P2F8) | pKd (GRIP1_4, Q9Y3R0) | pKd (PDZD7_3, Q9H5P4) | pKd (IL16_1, Q14005) | pKd (DFNB31_1, Q9P202) | pKd (GRID2IP_2, A4D2P6) | pKd (DFNB31_2, Q9P202) | pKd (MPP2, Q14168) | pKd (DLG4_1, P78352) | pKd (NHERF4_1, Q86UT5-2) | pKd (CARD11, Q9BXL7) | pKd (MAGI2_6, Q86UL8) | further results |
| --- | --- | --- | --- | --- | --- | --- | --- | --- | --- | --- | --- | --- | --- | --- | --- | --- | --- | --- | --- | --- | --- |
| NTALVESEDL [PALLS, Q8WX93;Q8WX93-1] | below the threshold | below the threshold | below the threshold | below the threshold | below the threshold | below the threshold | below the threshold | below the threshold | below the threshold | below the threshold | below the threshold | below the threshold | below the threshold | below the threshold | below the threshold | below the threshold | below the threshold | below the threshold | below the threshold | 4.01 | pKd (GRASP, Q7Z6J2): below the threshold; pKd (LDB3, O75112): 5.16; pKd (NHERF2_2, Q15599): 4.64 |
| PAALPESTHM [SLC9A3, P48764] | below the threshold | below the threshold | below the threshold | below the threshold | 4.78 | below the threshold | below the threshold | below the threshold | below the threshold | below the threshold | below the threshold | below the threshold | below the threshold | 4.31 | below the threshold | below the threshold | below the threshold | 3.75 | below the threshold | below the threshold | pKd (SCRIB_3, Q14160): 3.55; pKd (GRASP, Q7Z6J2): below the threshold; pKd (PARD3B_1, Q8TEW8): 3.6; pKd (LDB3, O75112): below the threshold; pKd (NHERF2_2, Q15599): 4.94 |
| VKQYADVEGF [HNRNPK, P61978;P61978-2] | below the threshold | below the threshold | below the threshold | below the threshold | below the threshold | below the threshold | below the threshold | below the threshold | below the threshold | below the threshold | below the threshold | below the threshold | below the threshold | below the threshold | below the threshold | below the threshold | below the threshold | 3.99 | below the threshold | below the threshold | pKd (SCRIB_3, Q14160): below the threshold; pKd (PARD3B_1, Q8TEW8): below the threshold; pKd (LDB3, O75112): below the threshold; pKd (NHERF2_2, Q15599): below the threshold |
| SKQFDKNAYV [CLDN10, P78369] | below the threshold | below the threshold | below the threshold | 4.1 | below the threshold | below the threshold | below the threshold | below the threshold | below the threshold | below the threshold | below the threshold | below the threshold | below the threshold | below the threshold | below the threshold | below the threshold | below the threshold | below the threshold | below the threshold | below the threshold | pKd (SCRIB_3, Q14160): below the threshold; pKd (GRASP, Q7Z6J2): 3.56; pKd (PARD3B_1, Q8TEW8): 3.97; pKd (LDB3, O75112): below the threshold; pKd (NHERF2_2, Q15599): below the threshold |
